# From the DeepSol protein solubility set
# Assay: soluble on expression in E. coli; label from the status in PepcDB or PDB records
row,Sequence,soluble on expression in E. coli
1,MGHHHHHHSHMLSPERLALPDYEYLAQRHVLTYMEDAVCQLLENREDISQYGIARFFTEYFNSVCQGTHILFREFSFVQATPHNRVSFLRAFWRCFRTVGKNGDLLTMKEYHCLLQLLCPDFPLELTQKAARIVLMDDAMDCLMSFSDFLFAFQIQFYYSEFLDSVAAIYEDLLSGKNPNTVIVPTSSSGQHRQRPALGGAGTLEGVEASLFYQCLENLCDRHKYSCPPPALVKEALSNVQRLTFYGFLMALSKHRGINQALGALPDKGDLMHDPAMDEELERLLAQVPGLVNSVTASPEASCLPSRTPPRVGSPWRPLHHSRKVDGESDGSTEETDESET,not soluble
2,MRPESMTDGVPGSDSPAAAAAAASVTTSLHDLQVLVERGTLSGPEKQQADHLVTSLKRELVLRRVGDHLAERTFHELCVRLAVMERDWAAMERHIQQLMPLYELDRQAGIQSPHRDLLVGLNLMRLLAQNRLAEYHMELELLPTTEPQQNPYVLFPFQVEQALTEGSYQKILHIEAGAEWLPFIELLRETTIQEMVTSWAEAYAHVTLEELASMAALPVEQVPALLARVLDCTQYVVQNETVHFIASDHIREAPSQYLLAKEAVSRTMEYIRGLERIV,soluble
3,NLDALREVLECPICMESFTEEQLRPKLLHCGHTICRQCLEKLLASSINGVRCPFCSKITRITSLTQLTDNLTVLK,soluble
4,MIQKINILDSSQSGVKNGADSEAVLAALIEHLELINPSGRLSQNTRSAMLQLREEEWSEFFFWLLNSLECLDYVIINLTPESKKTLMSEHRNNIQVAIDALYSQRRRKSPGDESETLTRRNDAIFGNHVWQTFAQYFPPGLEKPSV,not soluble
5,MKIKWLGHACFLLTSDNGIRVVTDPYDNTVGYKVEKIDAEIVSTSHDHYDHNYVDMVSENAKHVKSEGKTNIDGIEITGVTSFHDDCKGAKRGKNVIFKFKIDGIDVCHLGDLGHVLSDSQVREIGNVDVLLVPVGGVYTIDYKGAVEVMKLVNPKITIPMHYKTPALSFDVDGVENFLSATGGKHIGKQEIELKKDEIENWPKVVALDYQ,soluble
6,GVEFMAGYYDTKNQALNPVSRTERPYPIVTVQNYVEKAIKEGRIQMNVEIEAFTTDIRMIVIGNVFEWCLRNGEADFEGNMVRSLGKYLDSTLD,not soluble
7,PVPRTCWIGPWKKNLAQGKITLKLINWIKKAELKNQPVLIFFPEIEAMNQFAEALVNYDFTRPVTVHSADQLRKEKVEWLREGKIKLLLTTTILERGVTFKDVQVAVFGSEGRIFTEAALVQIAGRAGRKLTHPTGDVCFFHYGKTTEMNRAITHIKKMNQLGFKEG,soluble
8,MAHHHHHHMEKVITMREIITNTRKIKLHENFLEDCNLKDIFYNGLETVNCGYNDYVNMKTWLFVLSEKMFRTDYEELAYVACDALKVLLCNSKFLNVIIFKLLRKKLEKEILKIMGICCLTVASRMQQINESTCFKVILELSNLKDKLNEFNIRQIEMDVFVTLAHSGFCFEKIITPVNELNQIMKFLETYENFFDNNFNTFKSSSNLMLKIIYCMVPVFNMNIYNYSIVNYALRLFIQDNDKYEFIFEKLKQNYQDKEIIHISNFQNHMHNIINAFKNTSIFSAKDSILNNQLDVQLFEEINKKIEAYYEQKHKT,not soluble
9,RSFYNLGMDYKYRFHRFSIQGEAALGISGMAFMNQVLYSPLQDIRLMLVHRYYSHDYWAMFAHSFSEGSSVQNENGWYLAASVNPFNRWTFFVSADLFSFPWWRYRISKASKGVDLLFQADYVPSKTVDMYVNYRYKQKERDVTGTQGKVILPTYHHRLRYRLNYLPCSSLSLRTTVDYNHFHSSGKTAGQGYQLTQTAGWKLPWLPLTTELQGSYFHTDDYDSRIYIYEKGLLYSFYTPSFQGEGIRLAIHFRYDMNKHWTAIAKLGQTTYFDRDEIGSGNDLIRGNKKTDVQMQLRLKF,not soluble
10,MSLSAPYRKQIISNAHNKPSLFSKIKTFFTQKDSARVSPRNNVANKQPRNESFNRRISSMPGGYFHSEISPDSTVNRSVVVSAVGEARNDIENKEEEYDETHETNISNAKLANFFSKKGNEPLSEIEIEGVMSLLQKSSKSMITSEGHHHHHH,soluble
11,CGVGFIAAIDGKPRRSVVEKGIEALKAVWHRGAVDADGKTGDGAGIHVAVPQKFFKDHVKVIGHRAPDNKLAVGQVFLPRISLDAQEACRCIVETEILAFGYYIYGWRQVPINVDIIGEKANATRPEIEQIIVGNNKGVSDEQFELDLYIIRRRIEKAVKGEQINDFYICSLSARSIIYKGMFLAEQLTTFYPDLLDERFESDFAIYHQRYSTNTFPTWPLAQPFRMLAHNGEINTVKGNVNWMKAHETRMEHPAFGTHMQDLKPVIGVGLSDSGSLDTVFEVMVRAGRTAPMVKMMLVPQALTSSQTTPDNHKALIQYCNSVMEPWDGPAALAMTDGRWVVGGMDRNGLRPMRYTITTDGLIIGGSETGMVKIDETQVIEKGRLGPGEMIAVDLQSGKLYRDRELKDHLATLKPWDKWVQNTTHLDELVKTASLKGEPSDMDKAELRRRQQAFGLTMEDMELILHPMVEDGKEAIGSMGDDSPIAVLSDKYRGLHHFFRQNFSQVTNPPIDSLRERRVMSLKTRLGNLGNILDEDETQTRLLQLESPVLTTAEFRAMRDYMGDTAAEIDATFPVDGGPEALRDALRRIRQETEDAVRGGATHVILTDEAMGPARAAIPAILATGAVHTHLIRSNLRTFTSLNVRTAEGLDTHYFAVLIGVGATTVNAYLAQEAIAERHRRGLFGSMPLEKGMANYKKAIDDGLLKIMSKMGISVISSYRGGGNFEAIGLSRALVAEHFPAMVSRISGIGLNGIQKKVLEQHATAYNEEVVALPVGGFYRFRKSGDRHGWEGGVIHTLQQAVTNDSYTTFKKYSEQVNKRPPMQLRDLLELRSTKAPVPVDEVESITAIRKRFITPGMSMGALSPEAHGTLNVAMNRIGAKSDSGEGGEDPARFRPDKNGDNWNSAIKQVASGRFGVTAEYLNQCRELEIKVAQGAKPGEGGQLPGFKVTEMIARLRHSTPGVMLISPPPHHDIYSIEDLAQLIYDLKQINPDAKVTVKLVSRSGIGTIAAGVAKANADIILISGNSGGTGASPQTSIKFAGLPWEMGLSEVHQVLTLNRLRHRVRLRTDGGLKTGRDIVIAAMLGAEEFGIGTASLIAMGCIMVRQCHSNTCPVGVCVQDDKLRQKFVGTPEKVVNLFTFLAEEVREILAGLGFRSLNEVIGRTDLLHQVSRGAEHLDDLDLNPRLAQVDPGENARYCTLQGRNEVPDTLDARIVADARPLFEEGEKMQLAYNARNTQRAIGTRLSSMVTRKFGMFGLQPGHITIRLRGTAGQSLGAFAVQGIKLEVMGDANDYVGKGLSGGTIVVRPTTSSPLETNKNTIIGNTVLYGATAGKLFAAGQAGERFAVRNSGATVVVEGCGSNGCEYMTGGTAVILGRVGDNFAAGMTGGMAYVYDLDDSLPLYINDESVIFQRIEVGHYESQLKHLIEEHVTETQSRFAAEILNDWAREVTKFWQVVPKEMLNRLEVPVHLPKAISAE,soluble
12,MGSDKIHHHHHHMLTKSSTELVRQQNSALVLAALRRKGSLSHTEIAAQTGLASATISVITAELERSGIIAKTEQHVQGGRGRPRVLFEPRRGCGYVIVVRISSDVVQYSLADYGGILLDRFEDARSHDLRGTAAFGEVLAAALERLLVRSNISKDEVLAISISSKGLVAGGGARLIWSPVFGREQLDFVELLRPAWRARIMLSNESLLVAHALAVREEERERGFHALAAVSLGHSIGLGLARRGKSGELDVSAPDFGHMLHQASAGLCRCGSYGCIEAAAGFYGILRTAFEVPSDTIPAKFVPLSEVDKIAASARQGNRMGGYAFRQAGLALGNGISRMLSLYEPMPIFVTGPGTRYFDLLEKGLEEGLAHSLQVRLQGMPQIRVVPDEQRLVFDGHLNRALGAIDGDIAAAGHP,not soluble
13,MSKVAMVTGGAQGIGRGISEKLAADGFDIAVADLPQQEEQAAETIKLIEAADQKAVFVGLDVTDKANFDSAIDEAAEKLGGFDVLVNNAGIAQIKPLLEVTEEDLKQIYSVNVFSVFFGIQAASRKFDELGVKGKIINAASIAAIQGFPILSAYSTTKFAVRGLTQAAAQELAPKGHTVNAYAPGIVGTGMWEQIDAELSKINGKPIGENFKEYSSSIALGRPSVPEDVAGLVSFLASENSNYVTGQVMLVDGGMLYN,soluble
14,MSLNHLNDKVNEIKDNFYGLIGHAYLEKYITKPIVDEDKLRFLYTMLAEKLPKKDTKLFTLSALLVDAALEIHEAVSLHNIQTDPIKKNRQLNVLAGDYYSSLYYYLLADSRHLPIIQVFSHSIQEINEYKMKLYDGKNIDFDEVKNNVDKVDTFLLQNLAEHFQLTTWKKAISVFFHLKRLVHEREAWINGKATPLMKAIVTELFGSNRPVDELKKDDQLQVLELWEEKVEEGKDHLLEHVKALLPKFERFFVDHLNDLFGPDYIHEKVAEEGEGHHHHHH,soluble
15,MAACRALKAVLVDLSGTLHIEDAAVPGAQEALKRLRGASVIIRFVTNTTKESKQDLLERLRKLEFDISEDEIFTSLTAARSLLERKQVRPMLLVDDRALPDFKGIQTSDPNAVVMGLAPEHFHYQILNQAFRLLLDGAPLIAIHKARYYKRKDGLALGPGPFVTALEYATDTKATVVGKPEKTFFLEALRGTGCEPEEAVMIGDDCRDDVGGAQDVGMLGILVKTGKYRASDEEKINPPPYLTCESFPHAVDHILQHLLAENLYFQ,soluble
16,MANQLAAVLGTGQTHYVAKRHDVSMAGLVREAIDRAMEDARVGWDDIDAVVIGKAPDLFEGSMMPELAMSDALGANGKPLLRVHTAGSVGGSTAVVASSLVKSGVHKRVLTVAWEKQSESNAMWALSTPIPFHMPVGAGAGGYFAPHVRSYIRRSGAPDHIGAMVAVKDRLNGSLNPYAHLKQPDITLESVQASQMLWDPIRYDETCPSSDGACAMVIGNEEAAEQVTADGREVAWIHATAMRTEPTTFAGRDQVNPQAGRDAAAALWKAAGIKDPLDEIDVAEIYVPFSWFEPMWLENLGFVSEGEGWKLTEAGETAIGGRLPLNASGGVLSSNPIGASGMIRFAESAMQVMHRAGDHQVKDARKALGHAYGGGSQYFSMWVVGSDRPNN,not soluble
17,MSLDIVSHQKIRRFEAGTFQEIESSVATEYPLTIYVNDQELVTIVCTPEYLEDLVVGFLTSEGIVRGPRDINSVDIIEATGHAKVSANFVNKFNAKYRGKRYITSCCGKSRENFYFQSDASLVNVKQNGNLQLTTDMIFRLMEKFEQNSATFHQTGGVHNAALCSSAEIIYSRMDIGRHNALDKIYGRALQDGTSTEDKAIIFSGRISSEILVKTAKLGCGIILSRSAPTELAINMAEELNITTVGFIRGDRLNVYSGFERITEGHHHHHH,soluble
18,MQNTTHDNVILELTVRNHPGVMTHVCGLFARRAFNVEGILCLPIQDSDKSHIWLLVNDDQRLEQMISQIDKLEDVVKVQRNQSDPTMFNKIAVFFQ,not soluble
19,AHHHHHHASAKWVCKICGYIYDEDAGDPDNGISPGTKFEELPDDWVCPICGAPKSEFEKLEDGSRFIDSNVFLYAMIKPKGNTSKEILKKKEKAKKILLRVENGEDVVTTLIHLSEIANILEAKVNLTTAVRFLENLLLAENVKILPVSVEEYLKAVLISKEKGISVNDALAYLKMKELNIKEIYTFDRHFQNLDVEVIQD,soluble
20,MATKLQDGNTPCLAATPSEPRPTVLVFDSGVGGLSVYDEIRHLLPDLHYIYAFDNVAFPYGEKSEAFIVERVVAIVTAVQERYPLALAVVACNTASTVSLPALREKFDFPVVGVVPAIKPAARLTANGIVGLLATRGTVKRSYTHELIARFANECQIEMLGSAEMVELAEAKLHGEDVSLDALKRILRPWLRMKEPPDTVVLGCTHFPLLQEELLQVLPEGTRLVDSGAAIARRTAWLLEHEAPDAKSADANIAFCMAMTPGAEQLLPVLQRYGFETLEKLAVLG,soluble
